The results in this text go back to publication PMC3466309, “Initial Characterization of the Pf-Int Recombinase from the Malaria Parasite Plasmodium falciparum”.

The target of one data set is T1, Pf-Int-C162 (Plasmodium falciparum 3D7, UniProt C0H5A8 162-490).
T1 sequence: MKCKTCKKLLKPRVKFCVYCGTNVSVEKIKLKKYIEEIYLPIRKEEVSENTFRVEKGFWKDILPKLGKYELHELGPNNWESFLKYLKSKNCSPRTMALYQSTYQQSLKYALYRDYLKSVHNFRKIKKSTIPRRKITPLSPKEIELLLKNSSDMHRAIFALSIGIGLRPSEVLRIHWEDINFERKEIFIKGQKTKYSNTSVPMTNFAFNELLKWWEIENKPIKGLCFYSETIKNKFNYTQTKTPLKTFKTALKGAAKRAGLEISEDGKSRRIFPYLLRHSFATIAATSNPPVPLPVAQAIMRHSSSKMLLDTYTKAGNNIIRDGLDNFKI
Put plainly: EMSA; 10 ug/ml poly(dI-dC); EMSA: 50 mM Tris pH 8, 150 mM NaCl, 0.1 mM EDTA, 5 mM DTT, 50 ug/ml BSA, 2% glycerol, 0.5% Tween 20, 10 ug/ml poly(dI-dC) unless omitted, 10 nM DNA, 20 min at 20 C; 5% gel in 0.5x TBE at 18 C. Particulars: protein: recombinant; tags: N- or C-terminal His6 versions; label: 5'-DY682 on strand 1; blunt.

The next data set has as its target T2, His6-Pf-Int-C192 (Plasmodium falciparum 3D7, UniProt C0H5A8 192-490).
T2 sequence: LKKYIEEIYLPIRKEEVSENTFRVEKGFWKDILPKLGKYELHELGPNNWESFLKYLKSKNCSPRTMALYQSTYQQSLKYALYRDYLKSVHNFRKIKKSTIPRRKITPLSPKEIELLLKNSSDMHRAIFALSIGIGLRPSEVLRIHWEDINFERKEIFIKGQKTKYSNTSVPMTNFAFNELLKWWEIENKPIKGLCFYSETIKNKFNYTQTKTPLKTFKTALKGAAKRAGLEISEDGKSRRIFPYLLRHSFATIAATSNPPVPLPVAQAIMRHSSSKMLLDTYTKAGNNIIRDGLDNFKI
Put plainly: EMSA supershift; 0.04 or 0.2 uM protein; anti-Pf-Int disrupts, anti-His5 supershifts; EMSA: 50 mM Tris pH 8, 150 mM NaCl, 0.1 mM EDTA, 5 mM DTT, 50 ug/ml BSA, 2% glycerol, 0.5% Tween 20, 10 ug/ml poly(dI-dC) unless omitted, 10 nM DNA, 20 min at 20 C; 5% gel in 0.5x TBE at 18 C. Conditions: protein: recombinant; tags: N-terminal His6; label: 5'-DY682 on strand 1; blunt.

Another data set deals with T3, Pf-Int-C192 (Plasmodium falciparum 3D7, UniProt C0H5A8 192-490).
T3 sequence: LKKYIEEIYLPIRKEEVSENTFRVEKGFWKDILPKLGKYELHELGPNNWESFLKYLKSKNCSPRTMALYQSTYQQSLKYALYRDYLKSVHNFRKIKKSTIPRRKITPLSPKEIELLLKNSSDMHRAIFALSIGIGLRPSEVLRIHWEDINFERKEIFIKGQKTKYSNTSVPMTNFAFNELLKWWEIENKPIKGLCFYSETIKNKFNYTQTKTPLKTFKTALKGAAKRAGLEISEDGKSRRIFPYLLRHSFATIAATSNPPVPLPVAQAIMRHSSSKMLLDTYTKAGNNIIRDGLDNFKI
Briefly: EMSA; 10 ug/ml poly(dI-dC); max shift at ~15-fold higher protein/DNA ratio than without; EMSA: 50 mM Tris pH 8, 150 mM NaCl, 0.1 mM EDTA, 5 mM DTT, 50 ug/ml BSA, 2% glycerol, 0.5% Tween 20, 10 ug/ml poly(dI-dC) unless omitted, 10 nM DNA, 20 min at 20 C; 5% gel in 0.5x TBE at 18 C. Particulars: protein: recombinant; label: 5'-DY682 on strand 1; blunt. (Mobility shift assays separate free from complexed probe on a gel.)

B1: Selex8 (dsDNA)
DNA 1: CAAACACACTGTGCGCGCGTCG
DNA 2: CGACGCGCGCACAGTGTGTTTG
B1: the binding result with Pf-Int-C162 is listed as “no binding”; with His6-Pf-Int-C192, “binds”; with Pf-Int-C192, “binds”.
